# Assay: yeast display, Sf9 membrane polyspecificity reagent, FACS + sequencing; frameworks hold sequencing errors
# Method in brief: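 A nanobody's polyreactivity label depends on the gate it was sorted from. Yeast display cells were stained with 10% biotinylated, detergent-solubilized Sf9 membrane reagent for 1 hour at 4 °C, enriched on streptavidin microbeads and sorted by FACS. The low and high (top ~1%) gates were set on anti-HA fluorescence for expression and streptavidin fluorescence for reagent binding.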
row,Sequence,polyreactivity (PSR sort gate)
1,QVQLVESGGGLVQAGGSLRLSCAASGRIFVTNAMGWYRQAPGKERELVAAITRGGSTNYADSVKGRFTISRDNAKNTVYLQMNSLKPEDTAVYYCAAKRRYYGPWSRIGYDYWGQGTQVTVSS,low polyreactivity
2,QVQLVESGGGLVQAGGSLRLSCAASGRTFVLYTMGWYRQAPGKERELVAAISGSGGRSYYADSVKGRFTISRDHAKNSVYLQMNSLKPEDTAVYYCAAYGQGLPLYGYWGQGTQVTVSS,high polyreactivity
3,QVQLVESGGGLVQAGGSLRLSCAASGSIYPDYDMGWYRQAPGKERELVAAISSSGDSTYYADSVKGRFTISRDNAKNTVYLQMNSLKPEDTAVYYCAVDGTRSTSNGSEFTGYNYWGQGTHVTVSS,low polyreactivity
4,QVQLEESGGGLVQAGGRLRLSCAASGGNFNYYPMGWYREAPGKERELVAAITRGGSTYYADSVKGRFTISRDNAKNTVYLQMNSLKPEDTAVYYCAAGWRRYDKSPLEGSWGQGTQVTLSS,high polyreactivity
5,QVQLVESGGGLDQAGGSLRLISAASGLTLRRYAMGWYRQAPGKERELVASINTGTSTKYADSVKGRFTISRDNAKNTDYLQLNSLKPEDTAFYYCAARPAAQGYGYWGQGTQVTVSS,high polyreactivity
6,QVQLVESGGGLVQAGGSLRLSCAASGRIFPTYTMGWYRQAPGKERELVAAITSGGTTYYADSVKGLFTISRDNAKNTVYLQMNSLKPEDTAVYSCAALRPRRGYYYWGQGTQVTVSS,high polyreactivity
7,QVQLVESGGGLVQAGGSLRLSCAASGGIVGYYAMGWYRQAPGKERELVAAISWSGGSTYYADSVKGRFTISRDNAKNTVYLQMNSLKPEDTAVYYCAASDSYGYDYWGQGTQVTVSS,high polyreactivity
8,QVQLVESGGGLVQAGGSLRLSCAASGRTFVSYAMGWSRQAPGKERELVATITGSTGGTYYADSVKGRFTISRDNAKNTVYLQMNSLKPEDTAVYYCNKDYYYNPGNVASGYDYWGQGTQVTVSS,low polyreactivity
9,QVQLVESGGGLVQAGGSLRISCAASGLIFNFNALGWYRQAPGKERELVAAITRSGSTDYADSVKGRFTISRDNAKNTVYLQLNSLKPEDTAVYYCAAEFYLRRFKVTKRYWFDYWGQGTQVTVSS,low polyreactivity
10,QVQLVESAGGLVQAGGSLRLSCAASGRIFQFYAMGWYRQAPGKERELVATITRGGSTYYADSVKGRFTISRDNAKNTVYLQMNSLKPEDTAVYYCAAGFAGKYYWGQGTQVTVSS,high polyreactivity
11,QVQLVESGGGLVQAGGSLRLSCAASGITFTFNAMGWYRQAPGKERELVAAISSTTSTKYADSVKGRFTISRDNAKNTVYLQMNSLKPEDTAVYYCALTYLLRYYGYRDDEYDYWGQGTQVTVSS,low polyreactivity
12,QVQLVESGGGLVQAGGSIRLSCAASGTIFRSYAMGWYRQAPGKERELVAAITSSSGSTYYADSVKGRFTISRDNAKNTVYLQMNSLKPEDTAGYYFNAPYWKSRFRAYYHWGQGTQVTVSS,high polyreactivity
13,QVQLVESGGGLVQAGGSLRLSCAASGYAKGWYRQAPGKESELDAAITSNGGRTYYADSVKGRFTISRDNAKNTVYIQMNSLKPEDTAVYYCATRSGPHYKTRWTYDLGYWGQGSQVTVSS,low polyreactivity
14,QVQLQESGGGLVQAGGCLRLSCAASGSIFTYAVMGWYRQAHGKEHELVATIDTGSSTYYADSVKGRITISRDNAKNTLYLQMNSLKPEDTAVYYCAVNTYCRVRYRYWGQGTQVTVSS,high polyreactivity
15,QVQLVESGGGLVQAGGSLRLSCAASGRTFYRNAMGWYRQARGKERELVAAISSRGGSTYYADSVKGRFTISRDNAKNTVYLQMNSLKPEDTAVYYCAARYLYLWADYEYGYWGQGTQVTVSS,high polyreactivity
16,QVQLVESGGGLVQAGGSLRLSCAASGITFKRYAMGWYRQAPGKERELVAAITISAGSTYYADSVKGRFTISRDNAKNTVYLQMNSLKPEDTAVYYCAAESYGSWYYYWGQGTQVTVSS,high polyreactivity
17,QVQLVESSGGLVQAGGSLSLSCADSGIIFYRYAMGWYIQAQGQERELVAAITWSGVSTSYADSVKGRFTISRDNAKNTVSIQMNSLKPEDTAVYYCNKDPGTLYGDMDSWGQGTQVTVSS,low polyreactivity
18,QVQLVESGGGLVQAGGSLRISCAASGSTFLYYAMGWYRQAPGKERELVAAISWDGGNTYYADSVKGRFTISRDNAKNTVYLQMNSLKPEDTAVYYFAAKHYGSYLYWFGSDYWGQGTQVTVSS,high polyreactivity
19,QVQLVESGGGLVQAGGSLRLSCAASGSIFLINAMGWYRQAPGKERELVAAISRSGGRTYYADSVKGRFTISRDNAKNTVYLEMNSLKPEDTAVYYCAVPSIYYAVRAYDYWGQGTQVTVSS,high polyreactivity
20,QVQLVESGGGLVQAGGSLRLSCAASGRIFDGNARGWYIQAPGKERELVAAISRNGGTYYADSVKGRFTISRDNAKNTVYLQMNSLKPEDTAVYYCAADPSSVGYHVEYDYWGQGTQVTVSS,low polyreactivity
21,QVQLVESGGGLVQAGGSLRLSCAASGSTFVVNTMGRYRQAPGKERELVAAISTGSSTYADSVKGRFTISRDNAKNTVYLQMNSLKPEDTAVYYCNTAFPGKYDYWGQGTQVTVSS,low polyreactivity
22,QVQLVDSGGGLVQAGGRLRLSCDASGLTLYKNGLGWYRLEPVKERELFAVISRSGGRTYYADSVKGRFTISRDNAKNTVYLQFNSLKPEETAVYYCAARGIGPTKYDYLGQGTQVTVSS,high polyreactivity

row,Sequence,polyreactivity (PSR sort gate)
1,QVQLVESGGGLVQAGGSLRLSCAASGFTFRSYTMGWYRQAPGKERELVAAITSRGTSTYYADSVKGRFTISRDNAKNTVYLQMNSLKPEDTAVYYCADPIYNGYASWQVYYWGQGTQVTVSS,high polyreactivity
2,QVQLVESGGGLVQAGGSLRLSCAASGSIFSVNAMGWYRQAPGKETELVAGITISGGRTYYADSVKGRFTISRDNAKNTVYLQLNSLKPEDNAVYYCAADWVYPPGLKDSVHFGEYDYWGEGTQVTVSS,low polyreactivity
3,QVQLVESGGGLVQAGGSLRLSCAASGFTFVSYAMGWYRQAPGKERELVAAISKRGGSTSYADSVKGRFTISRDNAKNTVYLQMNSLKPEDTAGYYCAARYGSSYSWSNYWGQGTQVTVSS,high polyreactivity
4,QLQLVESGGGLVQAGGSLRLSCAASGRTFRINTMGWYRPAPGKERELVATITGSGGSTYYADSVKGRFTISRDNAKNTVYLQMNSLKPEDTAVYYCAAVGDQNEYDYWGQGTQVTVSS,low polyreactivity
5,QVQLVESGGVLVQAGGSLRLSCAASGRTFNLIAMGWYRQAPGKERELVAAISRSGGSTYYADSEKGRFTISRDNAKNTVYLQMNSLNPEETAVYYCNASALGRPYYRGSYFVFQGYEYWGLGTQVTVSS,low polyreactivity
6,QVQLVESGGGLVQAGGSLRLSCAASGSTFYRYAMGWYRQAPGKERELVAAISTRSGSTYYADSVKGRFTISRDNAKNTVYLQMNSLKPEDTAVYYCAADGHKKTARKYYYWGQGTQVTVSS,low polyreactivity
7,QVQLVESGGGLVQAGGSLRLSCSASGRNFKYYAMGWYRKAPGKERELVAAITSTGGSTYYADSVKGRFTISRDNGKNTVYLQLNSLKPEDTAVYYCNRDTQYRDRSDNHWGQGTQVTVSS,high polyreactivity
8,QVQLVESGGGLVQAGGSLRLSCAASGGIFGRYAMGWYIQAPGKERELFAAISKRGGSTYYADSVKGRFTISRDNAKNTVYLQMNSLKPEDTAVYYCNAYRLSYTTFGKADGDYWGQGTQVTVSS,high polyreactivity
9,QVQLVESGGGLVQAGGSLRLSCAAYGRTFLYNAMGWYRQAPGKERELVAAISSRGARTYYADSVKGRFTISRDNAKNTVYLQMNSLKPEDTAVYYCATDSYRYDGIQYLYEYYYWGQGTQVTVSS,high polyreactivity
10,QVHLVESGGGLVQAGGSLRLTCAASGSTFDINAMRWYRQAPGKERELVASITFSGGSTYYADSVKGRFTISRDNAKNTVYLQMNSLKPEDTAVYYCAADSSGEYPGGYWGQGTQVTVSS,low polyreactivity
11,QVQLVESGGGLVQAGGSLRLSCAASGLIFRDNTMGWYRQAPGKERELVAAINSGGGTSYADSVKGRFTISRDNAKNTVYLQMNSLKPEDTAVYYCAAAWWPYRYGTYYSQYDYWGQGTQVTVSS,low polyreactivity
12,QVQLVESGGGLVQAGGSLRLSCAASGRIFLVNAMGWDRQAPGKERELVAAINFISGSTYYADSVKGRFTISRDNAKNTVYLQMNSLKPEDTAVYYCAAYSYWSYVQRYNLEYDYWGQGTQVTVSS,low polyreactivity
13,QVQLVESGGGLVQAGGSLRLSCAASGSIINRYAKGWYRQAPGKERELVAAITQSGGRTYYADSVKGRFTISRDNAKNTVYLQMNSLNPEDTAVYYCNAVRWYLYDYWGQGTQVTVSS,high polyreactivity
14,QVQLVASGGGLVQAGGSLRLSCAATGSIFYFYAMGWYRPAPWKERELVAAITDCGASTRYADSVKGRFTISRDNAKNTVYLQMNSLKPEDTAVYYCAAVRYHISYREYYWGQGTQVTESS,high polyreactivity
15,QVQLVESGGGLVQAGGSLRLSFAAYGRTIRWNAMGWYRQEPGKERELVAAITSRGGSTYYADSVKGRFTISRDNAKNTVYLQMNSLKPEDTAVYYCAKQPKPPPVTGYDYWGQGTQVTVSS,high polyreactivity
16,HVQLQESGGGLVQARGSLRLSCAATGSIFYRLKMGWHRQAPGKERELVATIDPGSNTYYADSVKGSFTISRDNAKKTVYPQMYSLKPEDTAVYYCAVSAHWTIHYYYWGEGTQVTVSS,high polyreactivity
17,QVQHVESGGGLDQAARSLRLICAASGSIFTDNGMGWYRQAPGKERELVAAISWRGGTYYADSVKGRFTISRDNAKNSVYLQMNSLKPEDTAVYYCNADPEAEGNFEYYYWGQGTQVTVSS,low polyreactivity
18,QVQLVESGGGLVQAGGSLRLSCAASGSTFFYYAMVWYRQAPGKERELVAAISQSSASTYYADSVKGRFTISRDNAKNTVYLQMNSLKPEDTAVYYCAAARGYWWYDYWGQGTQVTVSS,high polyreactivity
19,QVQLVESGGGLVQAGGSLRLSCAASGSTFKRYAKGWYRQAPGKERELVAAITLSGGNTYYADSVKGRFTISRDNAKNTVYLQMNSLKPEDTAVYYCAARRYRGYDYWGQGTQVTVSS,high polyreactivity
20,QVQLVESGGGLVQAGGSLRLSCAASGSIFLINAMGWYRQAPGKETELVAAISRSGGRTYYADSVKGRFTISRDNAKNTVYLQMNSLKPEDTAVYYCAVPSIYYAGRAYDYWGQGTQVTVSS,high polyreactivity
21,QVQLVESRGGLVQAGGSVRLSFAASGRILKYNAMGWYRQAPGKERELVAAISYRGGSTYYADSVKGRFTISRDNAKNTVYLQMNSLKPEDTAVYYCAALTESTSYGYWGQGTQVTVSS,low polyreactivity

# — the nanobody polyreactivity screen of Harvey et al. (2022)
